T1: human IL-10 receptor (hIL-10R alpha and beta chains) on HEK-Blue IL-10 reporter cells (human, UniProt Q13651 22-578; Q08334 20-325)
T1 sequence 1: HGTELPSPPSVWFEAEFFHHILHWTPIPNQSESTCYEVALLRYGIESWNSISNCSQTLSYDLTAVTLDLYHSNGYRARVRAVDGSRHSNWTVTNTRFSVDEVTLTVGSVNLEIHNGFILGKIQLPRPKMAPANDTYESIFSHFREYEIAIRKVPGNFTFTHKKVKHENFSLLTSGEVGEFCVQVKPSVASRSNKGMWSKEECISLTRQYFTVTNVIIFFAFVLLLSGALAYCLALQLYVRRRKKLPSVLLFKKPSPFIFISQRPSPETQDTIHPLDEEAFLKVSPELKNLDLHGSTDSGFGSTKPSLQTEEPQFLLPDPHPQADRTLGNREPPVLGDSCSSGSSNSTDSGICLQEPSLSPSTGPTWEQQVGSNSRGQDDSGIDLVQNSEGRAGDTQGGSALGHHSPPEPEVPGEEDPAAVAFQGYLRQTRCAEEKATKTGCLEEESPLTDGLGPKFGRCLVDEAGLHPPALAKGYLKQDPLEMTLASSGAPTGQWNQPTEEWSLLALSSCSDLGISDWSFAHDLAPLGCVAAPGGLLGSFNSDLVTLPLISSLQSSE
T1 sequence 2: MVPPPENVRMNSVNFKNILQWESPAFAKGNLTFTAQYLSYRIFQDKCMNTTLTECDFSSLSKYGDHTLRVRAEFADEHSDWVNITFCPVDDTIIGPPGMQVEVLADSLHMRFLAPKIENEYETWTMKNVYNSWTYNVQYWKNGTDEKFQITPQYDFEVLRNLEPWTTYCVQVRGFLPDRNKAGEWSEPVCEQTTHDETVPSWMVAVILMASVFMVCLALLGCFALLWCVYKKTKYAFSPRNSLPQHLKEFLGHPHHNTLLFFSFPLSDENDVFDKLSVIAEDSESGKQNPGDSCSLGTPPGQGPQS

B1: IL10R binding molecule of SEQ ID NO: 271 (bispecific antibody)
chain: QVQLQESGGGSVQAGGSLRLSCAASGYTYSMYCMGWFRQAPGKEREGVAQINSDGSTSYADSVKGRFTISKDNAKNTLYLQMNSLKPEDTAMYYCAADSRVYGGSWYERLCGPYTYEYNYWGQGTQVTVSSGGGSQVQLQESGGGSVQAGGSLRLSCAASGYTYSSYCMGWFRQAPGKEREGVAHIDSDGSTSYADSVKGRFTISKDNAKNTLYLQMNSLKPEDTAMYYCAADPIPGPGYCDGGPNKYWGQGTQVTVSSASHHHHHH
B2: IL10R binding molecule of SEQ ID NO: 272 (bispecific antibody)
chain: QVQLQESGGGSVQAGGSLRLSCAASGYTYSMYCMGWFRQAPGKEREGVAQINSDGSTSYADSVKGRFTISKDNAKNTLYLQMNSLKPEDTAMYYCAADSRVYGGSWYERLCGPYTYEYNYWGQGTQVTVSSGGGSQVQLQESGGGSVQAGGSLRLSCAASRYTYNSYCMGWFRQAPGKEREGVATIDSDGMTRYADSVKGRFTISKDNAKNTLYLQMNSLKPEDTAMYYCAADADCTIAAMTTNPLGQGTQVTVSSASHHHHHH
B3: IL10R binding molecule of SEQ ID NO: 273 (bispecific antibody)
chain: QVQLQESGGGSVQAGGSLRLSCAASGYTYSMYCMGWFRQAPGKEREGVAQINSDGSTSYADSVKGRFTISKDNAKNTLYLQMNSLKPEDTAMYYCAADSRVYGGSWYERLCGPYTYEYNYWGQGTQVTVSSGGGSQVQLQESGGGSVQAGGSLRLSCTVSRYTASVNYMGWFRQAPGKEREGVATIFTGAGTTYYANSVKGRFTISRDNAKNTAYLQMNSLKPEDTAIYYCAVDFRGGLLYRPAYEYTYRGQGTQVTVSSASHHHHHH
B4: IL10R binding molecule of SEQ ID NO: 274 (bispecific antibody)
chain: QVQLQESGGGSVQAGGSLRLSCAASGYTYSMYCMGWFRQAPGKEREGVAQINSDGSTSYADSVKGRFTISKDNAKNTLYLQMNSLKPEDTAMYYCAADSRVYGGSWYERLCGPYTYEYNYWGQGTQVTVSSGGGSQVQLQESGGGSVEAGGSLRLSCAASGYTHSSYCMGWFRQAPGKEREGVAAIDVDGSTTYADSVKGRFTISKDNAKNTLYLQMNSLKPEDTGMYYCAAEFADCSSNYFLPPGAVRYWGQGTQVTVSSASHHHHHH
B5: IL10R binding molecule of SEQ ID NO: 275 (bispecific antibody)
chain: QVQLQESGGGSVQAGGSLRLSCAASGYTYSMYCMGWFRQAPGKEREGVAQINSDGSTSYADSVKGRFTISKDNAKNTLYLQMNSLKPEDTAMYYCAADSRVYGGSWYERLCGPYTYEYNYWGQGTQVTVSSGGGSQVQLQESGGGSVQAGGSLRLSCAASGYSYSSYCMGWFRQAPGKEREGVATIDSDGMTRYADSVKGRFTISKDNAKNTLYLQMNSLKPEDTAMYYCAAPLYDCDSGAVGRNPPYWGQGTQVTVSSASHHHHHH
B6: IL10R binding molecule of SEQ ID NO: 276 (bispecific antibody)
chain: QVQLQESGGGSVQAGGSLRLSCAASGYTYSMYCMGWFRQAPGKEREGVAQINSDGSTSYADSVKGRFTISKDNAKNTLYLQMNSLKPEDTAMYYCAADSRVYGGSWYERLCGPYTYEYNYWGQGTQVTVSSGGGSQVQLQESGGGSVQTGGSLRLSCAASGYTYLRGCMGWFRQAPGKEREGVAVMDVVGDRRSYIDSVKGRFTISRDNAANSVYLQMDNLKPEDTAMYYCTAGPNCVGWRSGLDYWGQGTQVTVSSASHHHHHH
B7: IL10R binding molecule of SEQ ID NO: 277 (bispecific antibody)
chain: QVQLQESGGGSVQAGGSLRLSCAVSGYAYSTYCMGWFRQAPGKEREGVAAIDSGGSTSYADSVKGRFTISKDNAKNTLYLRMNSLKPEDTAMYYCAAVPPPPDGGSCLFLGPEIKVSKADFRYWGQGTQVTVSSGGGSQVQLQESGGGSVQAGGSLRLSCAASGYTYSSGCMGWFRQAPGKEREAVAAINSDGSTSYADSVKGRFTISKDNAKNTLYLQMNSLKPEDTAMYYCAAEPYCSGGYPRWSVAEFGYWGQGTQVTVSSASHHHHHH
B8: IL10R binding molecule of SEQ ID NO: 278 (bispecific antibody)
chain: QVQLQESGGGSVQAGGSLRLSCAVSGYAYSTYCMGWFRQAPGKEREGVAAIDSGGSTSYADSVKGRFTISKDNAKNTLYLRMNSLKPEDTAMYYCAAVPPPPDGGSCLFLGPEIKVSKADFRYWGQGTQVTVSSGGGSQVQLQESGGGSVQAGGSLRLSCAASGYTYSSYCMGWFRQAPGKEREGVAHIDSDGSTSYADSVKGRFTISKDNAKNTLYLQMNSLKPEDTAMYYCAADPIPGPGYCDGGPNKYWGQGTQVTVSSASHHHHHH
B9: IL10R binding molecule of SEQ ID NO: 279 (bispecific antibody)
chain: QVQLQESGGGSVQAGGSLRLSCAVSGYAYSTYCMGWFRQAPGKEREGVAAIDSGGSTSYADSVKGRFTISKDNAKNTLYLRMNSLKPEDTAMYYCAAVPPPPDGGSCLFLGPEIKVSKADFRYWGQGTQVTVSSGGGSQVQLQESGGGSVQAGGSLRLSCAASRYTYNSYCMGWFRQAPGKEREGVATIDSDGMTRYADSVKGRFTISKDNAKNTLYLQMNSLKPEDTAMYYCAADADCTIAAMTTNPLGQGTQVTVSSASHHHHHH
B10: IL10R binding molecule of SEQ ID NO: 257 (bispecific antibody)
chain: QVQLQESGGGSVQAGGSLRLSCAASRYLYSIDYMAWFRQSPGKEREPVAVIYTASGATFYPDSVKGRFTISQDNAKMTVYLQMNSLKSEDTAMYYCAAVRKTDSYLFDAQSFTYWGQGTQVTVSSGGGSQVQLQESGGGSVQAGGSLRLSCAASGYTYSSYCMGWFRQAPGKEREGVAHIDSDGSTSYADSVKGRFTISKDNAKNTLYLQMNSLKPEDTAMYYCAADPIPGPGYCDGGPNKYWGQGTQVTVSSASHHHHHH
B11: IL10R binding molecule of SEQ ID NO: 280 (bispecific antibody)
chain: QVQLQESGGGSVQAGGSLRLSCAVSGYAYSTYCMGWFRQAPGKEREGVAAIDSGGSTSYADSVKGRFTISKDNAKNTLYLRMNSLKPEDTAMYYCAAVPPPPDGGSCLFLGPEIKVSKADFRYWGQGTQVTVSSGGGSQVQLQESGGGSVQAGGSLRLSCTVSRYTASVNYMGWFRQAPGKEREGVATIFTGAGTTYYANSVKGRFTISRDNAKNTAYLQMNSLKPEDTAIYYCAVDFRGGLLYRPAYEYTYRGQGTQVTVSSASHHHHHH
B12: IL10R binding molecule of SEQ ID NO: 281 (bispecific antibody)
chain: QVQLQESGGGSVQAGGSLRLSCAVSGYAYSTYCMGWFRQAPGKEREGVAAIDSGGSTSYADSVKGRFTISKDNAKNTLYLRMNSLKPEDTAMYYCAAVPPPPDGGSCLFLGPEIKVSKADFRYWGQGTQVTVSSGGGSQVQLQESGGGSVEAGGSLRLSCAASGYTHSSYCMGWFRQAPGKEREGVAAIDVDGSTTYADSVKGRFTISKDNAKNTLYLQMNSLKPEDTGMYYCAAEFADCSSNYFLPPGAVRYWGQGTQVTVSSASHHHHHH
B13: IL10R binding molecule of SEQ ID NO: 282 (bispecific antibody)
chain: QVQLQESGGGSVQAGGSLRLSCAVSGYAYSTYCMGWFRQAPGKEREGVAAIDSGGSTSYADSVKGRFTISKDNAKNTLYLRMNSLKPEDTAMYYCAAVPPPPDGGSCLFLGPEIKVSKADFRYWGQGTQVTVSSGGGSQVQLQESGGGSVQAGGSLRLSCAASGYSYSSYCMGWFRQAPGKEREGVATIDSDGMTRYADSVKGRFTISKDNAKNTLYLQMNSLKPEDTAMYYCAAPLYDCDSGAVGRNPPYWGQGTQVTVSSASHHHHHH
B14: IL10R binding molecule of SEQ ID NO: 283 (bispecific antibody)
chain: QVQLQESGGGSVQAGGSLRLSCAVSGYAYSTYCMGWFRQAPGKEREGVAAIDSGGSTSYADSVKGRFTISKDNAKNTLYLRMNSLKPEDTAMYYCAAVPPPPDGGSCLFLGPEIKVSKADFRYWGQGTQVTVSSGGGSQVQLQESGGGSVQTGGSLRLSCAASGYTYLRGCMGWFRQAPGKEREGVAVMDVVGDRRSYIDSVKGRFTISRDNAANSVYLQMDNLKPEDTAMYYCTAGPNCVGWRSGLDYWGQGTQVTVSSASHHHHHH
B15: IL10R binding molecule of SEQ ID NO: 284 (bispecific antibody)
chain: QVQLQESGGGSVQAGGSLRLSCTVSGYTYSSNCMGWFRQAPGKEREGVATIYTGGGNTYYADSVKGRFTISQDNAKNTVYLQMNNLKPEDTAMYYCAAEPLSRVYGGSCPTPTFDYWGQGTQVTVSSGGGSQVQLQESGGGSVQAGGSLRLSCAASGYTYSSGCMGWFRQAPGKEREAVAAINSDGSTSYADSVKGRFTISKDNAKNTLYLQMNSLKPEDTAMYYCAAEPYCSGGYPRWSVAEFGYWGQGTQVTVSSASHHHHHH
B16: IL10R binding molecule of SEQ ID NO: 285 (bispecific antibody)
chain: QVQLQESGGGSVQAGGSLRLSCTVSGYTYSSNCMGWFRQAPGKEREGVATIYTGGGNTYYADSVKGRFTISQDNAKNTVYLQMNNLKPEDTAMYYCAAEPLSRVYGGSCPTPTFDYWGQGTQVTVSSGGGSQVQLQESGGGSVQAGGSLRLSCAASGYTYSSYCMGWFRQAPGKEREGVAHIDSDGSTSYADSVKGRFTISKDNAKNTLYLQMNSLKPEDTAMYYCAADPIPGPGYCDGGPNKYWGQGTQVTVSSASHHHHHH

Target: T1, human IL-10 receptor (hIL-10R alpha and …)
Assay: cell-based or functional assay

Binder | Abs 630 (25 nM) | Abs 630 (100 nM)
B1 | 1.93 Abs 630 | 1.65 Abs 630
B2 | 0.47 Abs 630 | 0.38 Abs 630
B3 | 0.52 Abs 630 | 0.41 Abs 630
B4 | 0.46 Abs 630 | 0.37 Abs 630
B5 | 0.51 Abs 630 | 0.36 Abs 630
B6 | 0.46 Abs 630 | 0.36 Abs 630
B7 | 1.19 Abs 630 | 1 Abs 630
B8 | 1.61 Abs 630 | 1.18 Abs 630
B9 | 0.49 Abs 630 | 0.39 Abs 630
B10 | 0.45 Abs 630 | 0.36 Abs 630
B11 | 0.49 Abs 630 | 0.37 Abs 630
B12 | 0.66 Abs 630 | 0.69 Abs 630
B13 | 0.44 Abs 630 | 0.36 Abs 630
B14 | 0.48 Abs 630 | 0.39 Abs 630
B15 | 0.45 Abs 630 | 0.34 Abs 630
B16 | 0.48 Abs 630 | 0.39 Abs 630
